The target in assay [1] is T1, human CD200R1 on cells (HH, Jurkat-CD200R1, U937-CD200R1) (human) (UniProt Q8TD46).
T1 sequence (looked up): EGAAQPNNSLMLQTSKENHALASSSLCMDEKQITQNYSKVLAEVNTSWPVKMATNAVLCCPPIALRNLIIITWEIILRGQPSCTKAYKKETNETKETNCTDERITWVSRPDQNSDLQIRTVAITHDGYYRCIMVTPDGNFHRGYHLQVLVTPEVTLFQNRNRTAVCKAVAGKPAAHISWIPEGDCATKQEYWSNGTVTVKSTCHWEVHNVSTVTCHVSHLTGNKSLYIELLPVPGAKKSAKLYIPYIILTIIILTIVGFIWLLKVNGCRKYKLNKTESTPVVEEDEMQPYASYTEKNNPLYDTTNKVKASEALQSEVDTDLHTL
As to the kind of experiment: flow cytometry, U937-CD200R cells. Background: In flow cytometry, cells or beads pass a laser one at a time.

Assay [2] has as its target T1, human CD200R1 on cells (HH, Jurkat-CD200R1, U937-CD200R1) (human). Briefly: cell-based or functional assay.
The target is the same in assay [3]. Briefly: flow cytometry, Jurkat-CD200R cells.
Assay [4] shares this target. As to the kind of experiment: flow cytometry, HH cells.
Assay [5] concerns the target T2, human CD200R1 recombinant protein (human) (UniProt Q8TD46).
T2 sequence (looked up): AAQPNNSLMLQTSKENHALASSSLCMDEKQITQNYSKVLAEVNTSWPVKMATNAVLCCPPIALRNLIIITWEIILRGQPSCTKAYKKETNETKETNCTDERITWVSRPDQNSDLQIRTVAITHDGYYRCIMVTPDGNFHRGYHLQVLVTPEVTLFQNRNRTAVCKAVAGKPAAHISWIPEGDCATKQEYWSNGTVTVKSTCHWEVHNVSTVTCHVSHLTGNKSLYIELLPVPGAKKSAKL
Briefly: ELISA of hybridoma clones on human CD200R1.

Assay [6] deals with T3, mouse CD200R1 protein (R&D systems, 2554-CD) (mouse, UniProt Q9ES57 26-238).
T3 construct: the same entry is used
T3 sequence (looked up): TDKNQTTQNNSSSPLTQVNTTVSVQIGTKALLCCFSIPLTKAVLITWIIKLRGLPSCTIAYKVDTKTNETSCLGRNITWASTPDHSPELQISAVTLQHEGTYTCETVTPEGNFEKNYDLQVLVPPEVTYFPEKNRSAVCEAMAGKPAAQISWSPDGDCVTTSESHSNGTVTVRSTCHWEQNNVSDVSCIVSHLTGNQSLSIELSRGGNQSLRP
As to the kind of experiment: ELISA on coated mouse CD200R1 protein.

The record followed here is patent EP4722249A1 (AIMED BIO INC., dated 2026).

Some results are limits rather than exact numbers.

The term EC50 denotes the concentration giving half of the maximal effect. Low values mean greater potency, high ones weaker potency.

Turning to “LY3454738 (US 2020/0087395, I-4P, Eli Lilly) (antibody)”, the EC50 in assay [1] was 152 nM. In assay [2], the EC50 (nM), degree of signal transduction by the Dok2 protein, Jurkat-CD200R1 reporter cells is above 10000 nM; the IC50 (nM) of IL-6 suppression, LPS-treated U937-CD200R1 cells is 1.72 nM; the IC50 (nM) of TNF-α suppression, LPS-treated U937-CD200R1 cells is 6.03 nM; the IL-6 (pg/ml), LPS-treated U937-CD200R1 cells, log [Ab] (M) -7 worked out at 523 pg/ml. In assay [2], this molecule had an IL-6 (pg/ml), LPS-treated U937-CD200R1 cells, log [Ab] (M) -8 of 1330 pg/ml; an IL-6 (pg/ml), LPS-treated U937-CD200R1 cells, log [Ab] (M) -9 of 2670 pg/ml; an IL-6 (pg/ml), LPS-treated U937-CD200R1 cells, log [Ab] (M) -10 of 3380 pg/ml; an IL-6 (pg/ml), LPS-treated U937-CD200R1 cells, log [Ab] (M) -11 of 3550 pg/ml. In addition, in assay [2], the IL-6 (pg/ml), LPS-treated U937-CD200R1 cells, log [Ab] (M) -12 came to 4530 pg/ml; the RLU (a.u.), phospho-Dok2 luminescence, Jurkat-CD200R1 reporter cells, antibody dose 0.05 nM amounted to 9260 a.u; the RLU (a.u.), phospho-Dok2 luminescence, Jurkat-CD200R1 reporter cells, antibody dose 0.10 nM was 8400 a.u; the RLU (a.u.), phospho-Dok2 luminescence, Jurkat-CD200R1 reporter cells, antibody dose 0.20 nM was 8000 a.u. In assay [2], this molecule registered an RLU (a.u.), phospho-Dok2 luminescence, Jurkat-CD200R1 reporter cells, antibody dose 0.39 nM of 8960 a.u; an RLU (a.u.), phospho-Dok2 luminescence, Jurkat-CD200R1 reporter cells, antibody dose 0.78 nM of 8900 a.u; an RLU (a.u.), phospho-Dok2 luminescence, Jurkat-CD200R1 reporter cells, antibody dose 1.56 nM of 9100 a.u; an RLU (a.u.), phospho-Dok2 luminescence, Jurkat-CD200R1 reporter cells, antibody dose 3.13 nM of 9470 a.u. In assay [2], this molecule registered an RLU (a.u.), phospho-Dok2 luminescence, Jurkat-CD200R1 reporter cells, antibody dose 6.25 nM of 8930 a.u; an RLU (a.u.), phospho-Dok2 luminescence, Jurkat-CD200R1 reporter cells, antibody dose 12.5 nM of 13000 a.u; an RLU (a.u.), phospho-Dok2 luminescence, Jurkat-CD200R1 reporter cells, antibody dose 25 nM of 22700 a.u; an RLU (a.u.), phospho-Dok2 luminescence, Jurkat-CD200R1 reporter cells, antibody dose 50 nM of 25600 a.u. In assay [2], the TNF-α (pg/ml), LPS-treated U937-CD200R1 cells, log [Ab] (M) -7 was determined as 472 pg/ml; the TNF-α (pg/ml), LPS-treated U937-CD200R1 cells, log [Ab] (M) -8 was 1040 pg/ml; the TNF-α (pg/ml), LPS-treated U937-CD200R1 cells, log [Ab] (M) -9 came out at 1480 pg/ml; the TNF-α (pg/ml), LPS-treated U937-CD200R1 cells, log [Ab] (M) -10 is 3760 pg/ml. In assay [2], this molecule yielded a TNF-α (pg/ml), LPS-treated U937-CD200R1 cells, log [Ab] (M) -11 of 4950 pg/ml and a TNF-α (pg/ml), LPS-treated U937-CD200R1 cells, log [Ab] (M) -12 of 5490 pg/ml. This molecule registered an EC50 in assay [3] of 43.5 nM. This molecule displayed an EC50 in assay [4] of 82.7 nM.

B1: 6C3 (antibody, V domains shown)
VH: QVQLQQPGAELVRPGASVKLSCKASAYTFTSYWMNWVKQRPEQGLEWIGRIDPYDSETHYNQKFKDKAILTVDKSSSTAYMQLSSLTSEDSAVYYCARVDGNHLFDYWGQGTTLTVSS
VL: DIKMTQSPSSMYASLGERVTITCKASQDINSYLSWFQQKPGKSPKTLIYRANRLVDGVPSRFSGSGSGQDYSLTISSLEYEDMGIYYCLQYDEFPYTFGGGTKLEIK
Consider B1, for which, in assay [5], the ELISA O.D. was above 1.5 O.D.

B2: 1F1 (antibody, V domains shown)
VH: QVQLQQPGAEFVKPGAPVKLSCKASGYTFTSYWMNWVKQRPGRGLEWIGRIDPADSEIHYNQKFKDKATLTVDKSSSTAYIQFSSLTSEDSAVYYCARSGGWLPGFAYWGQGTLVTVSA
VL: ENVLTQSPAIMSASPGEKVTMTCSASSSLIYMHWYQQKSSTSPKLWIYDTSKLASGVPGRFSGSGSGNSYSLTINSMEAEDVATYYCFQGSGYPLMYTFGGGTKLEIK
For the molecule B2, the ELISA O.D. in assay [5] was above 1.5 O.D.

B3: 3G4 (antibody, V domains shown)
VH: QVQLQQPGAELVKPGAPVKLSCKASGFTLTSYWMNWVKQRPGRGLEWIGRIDPSDSETHYNQKFKDKATLTVDKSSSTAYIQLTSLTSEDSAVYYCARSGGWLPGFAYWGQGTLVTVSA
VL: ENVLTQSPAIMSASPGEKVTMTCSARSSVSYMHWYQQKSRTSPKLWIYDTSKLASGVPGRFSGSGSGNSYSLTISSMEAEDVATYYCFQGSGDPLMYTFGGGTKLEIK
On to B3, for which the ELISA O.D. in assay [5] was above 1.5 O.D.

B4: 6A8 (antibody, V domains shown)
VH: QVQLQQPGAELVKPGAPVKLSCKASGYTFTSYWMNWVKQRPGRGLEWIGRIDPSDSETHYNQKFKDKATLTVDKSSSTAYIQLSSLTSEDSAVYYCARSGGWLPGFAYWGQGTLVTVSA
VL: ENVLTQSPAIMSASPGEKVTMTCSASSSLSYMLWYQQKSSTSPKLWIYDTSKLASGVPGRFSGSGSGNSYSLTISSMEAEDVGTYYCFQGSGNPLMYTFGGGTKLEIK
On to B4, for which the ELISA O.D. in assay [5] was above 1.5 O.D.

B5: 5E9 (antibody, V domains shown)
VH: QVQLQQSGAELARPGASVKLSCKASGYTFTSYWMQWVKQRPGQGLEWIGAIYPGDGDTRYTQKFKGKATLTADKSSSTAYMQLRSLASEDSAVFYCARGGVTTLVPYFFDYWGQGATLTVSS
VL: DVLMTQTPLSLPVSLGDQASISCRSSQSIVHSNGNTYLEWYLQKPGQSPKLLIYKVSNRFSGVPDRFSGSGSGTDFTLKISRVEAEDLGVYYCFQGSHVPPTFGGGTKLEIK
On to B5, for which, in assay [5], the ELISA O.D. is above 1.5 O.D.

B6: 1H10 (antibody, V domains shown)
VH: QVQLQQPGAELVKPGTSVKLSCKASGYNFTSYWINWVKLRPGQGLEWIGDINPGSGSTNYNEKFRSKATLTVGTSSSTAYMQLSSLASEDSALYYCAREDYYGSRFFYWGQGTLVTVSA
VL: DVVMTQTPLSLPVSLGDQASISCRSSQSLVHSNGNTYLHWYLQKPGQSPKLLIYKVSNRFSGVPDRFSGSGSGTDFTLKISRVEAEDLGVYFCSQSTHVTFGAGTKLELK
As to B6, the ELISA O.D. in assay [5] was above 1.5 O.D.

B7: P001015 (antibody, V domains shown)
VH: EVQLLESGGGLVQPGGSLRLSCAASGFTFSSYDMSWVRQVPGKGLEWVSWISHGGGSIYYADSVKGRFTISRDNSKNTLYLQMNSLRAEDTAVYYCARDAPAYSAPLFDYWGQGTLVTVSS
VL: QSVLTQPPSASGTPGQRVTISCSGSSSNIGNNAVNWYQQLPGTAPKLLIYYDSNRPSGVPDRFSGSKSGTSASLAISGLRSEDEADYYCAAWDDSLSGYVFGGGTKLTVL
Take B7: in assay [6], the binding result is “no binding (tested: up to 300 nM)”.

B8: 6A10 (antibody, V domains shown)
VH: QLQQSGAELVRSGASVKLSCTASGFNIKDYYLHWIKQRPEQGLEWIGWIDPENGDTEYAPKFQGKATMTADTSSNTAYLQLISLTSEDAAVYYCFAGGSYWGQGTSVTVSS
VL: DIVMTQSPSSLSVSAGEKVTMSCKSSQSLLNSGNQKNYLAWYQQKPGQPPKLLIYGASTRESGVPDRFTGSGSGTDFTLTISSVQAEDLAVYYCQNDHSYPYTFGGGTKLEIK
On to B8, for which, in assay [5], the ELISA O.D. was above 1.5 O.D.
